For one substance, % of events in quadrant Q2 (mouse TCRβ positive and human IgG positive) results are on record in patent publication US20220348650A1.

This test concerns the target hTIGIT on the surface of T cells of B-hPD-1/hTIGIT double humanized mice (human extracellular region in the mouse genome (C57BL/6)) (UniProt Q495A1). In words: flow cytometry on spleen cells of a B-hPD-1/hTIGIT mouse, secondary anti-human Fc FITC; Q3 (TCRβ positive, stain negative) 30.3%. For orientation: Flow cytometry measures light scatter and fluorescence of single cells or particles in a stream.

hTIGIT on the surface of T cells of B-hPD-1/hTIGIT double humanized mice (human extracellular region in the mouse genome (C57BL/6)), sequence (Q495A1 22-141 limits assumed): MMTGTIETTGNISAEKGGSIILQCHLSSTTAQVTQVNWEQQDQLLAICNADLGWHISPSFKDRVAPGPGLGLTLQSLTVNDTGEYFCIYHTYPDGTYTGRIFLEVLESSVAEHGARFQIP

Substance IgG1 isotype control (antibody) registered a % of events in quadrant Q2 (mouse TCRβ positive and human IgG positive) of 2.61%.
